The data set addresses T1, Mth-Hel308 wild type (Methanothermobacter thermautotrophicus, UniProt O26901 1-690).
T1 sequence: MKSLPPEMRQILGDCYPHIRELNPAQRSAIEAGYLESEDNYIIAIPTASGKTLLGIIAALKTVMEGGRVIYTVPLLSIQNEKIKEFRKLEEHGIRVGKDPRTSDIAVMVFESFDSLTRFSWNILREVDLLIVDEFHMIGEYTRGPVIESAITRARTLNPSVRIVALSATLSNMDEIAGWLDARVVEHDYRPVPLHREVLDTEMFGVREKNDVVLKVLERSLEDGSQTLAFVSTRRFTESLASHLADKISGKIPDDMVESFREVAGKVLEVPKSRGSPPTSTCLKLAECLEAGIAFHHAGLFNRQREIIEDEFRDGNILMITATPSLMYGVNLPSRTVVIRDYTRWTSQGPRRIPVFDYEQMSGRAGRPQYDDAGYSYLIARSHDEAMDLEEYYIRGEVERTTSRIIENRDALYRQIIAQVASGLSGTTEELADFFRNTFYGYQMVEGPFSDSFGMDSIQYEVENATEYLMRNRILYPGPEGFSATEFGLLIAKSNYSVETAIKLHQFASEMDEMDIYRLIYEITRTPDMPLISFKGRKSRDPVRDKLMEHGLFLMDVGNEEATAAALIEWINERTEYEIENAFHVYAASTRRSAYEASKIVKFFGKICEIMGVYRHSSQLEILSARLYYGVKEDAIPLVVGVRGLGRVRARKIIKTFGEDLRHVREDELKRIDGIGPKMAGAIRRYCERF
Put plainly: EMSA; 5 mM EDTA; 25 nM DNA; EMSA: 20 mM Tris-HCl pH 7.5, 100 ug/ml BSA, 7% glycerol, 25 mM DTT, 5 mM EDTA, 25 nM Cy5-DNA; 5% TBE gel; no added salt stated; 37 C 10 min stated for duplex DNA reactions. To be noted: protein: recombinant; tags: N-terminal His6; label: Cy5 (end label); fork.

B1: forked DNA substrate (dsDNA)
DNA 1: GTCGGATCCTCTAGACAGCTCCATGATCACTGGCACTGGTAGAATTCGGC
DNA 2: CAACGTCATAGACGATTACATTGCTACATGGAGCTGTCTAGAGGATCCGA
In the case of B1, the Kd – broadly, the concentration at which binding is half-saturated – was found to be 68.2 nM.
